According to the MegaScale stability set (Tsuboyama et al. 2023):

B1: EHEE_rd2_0191 (parent)
chain: TTEYTFTDDEEARRAIEELKKRGLTFRYEKHGTTWRVRVD

Variants of: B1
Test: folding stability dG (cDNA display proteolysis); higher = more stable
Conditions: PBS, room temperature

Folding stability dG [kcal/mol] of substitutions, site by site:
Y28: G 0.032; H 0.592; I 2.95; K 0.466; L 2.15; M 1.86; Q 0.764; R -0.634; S 1.34; T 1.78; V 3.23; W 2.2
E29: A 1.75; C 2.56; D 1.7; F 2.35; G 1.04; H 1.83; I 2.13; K 1.72; L 1.71; M 1.94; N 1.38; Q 1.75; R 1.77; S 2.12; T 2.21; V 2.07; W 3.04; Y 2.44
K30: A 0.56; E -0.015; F 1.22; H 1.51; I 1.86; L 1.54; M 1.43; N 0.931; Q 1.54; R 1.99; S 0.569; T 0.892; V 1.82; W 0.819; Y 1.21
H31: A 1.75; D 2.39; E 2.24; F 2.15; G 0.625; I 2.81; K 2.06; L 2.29; M 2.18; N 2.21; Q 2.21; R 1.99; S 2.1; T 2.29; V 2.56; W 1.89; Y 2.04
G32: A 0.777; D 1.34; E 1.35; F 0.367; H 0.696; I -0.154; K 0.641; L 0.796; M 0.592; N 1.1; Q 0.889; R 0.119; S 0.389; T -0.068; V -0.186; W -0.3; Y 0.194
T33: A 1.93; D 2.54; E 2.14; F 1.9; G 2.46; H 2.01; I 1.84; K 2.01; L 1.91; M 1.9; N 2.55; P 1.79; Q 2.03; R 1.8; S 2.19; V 1.71; W 1.13; Y 1.7
T34: A 1.48; C 2.51; D 1.03; E 2.07; F 2.15; G 1.56; H 1.74; I 2.48; K 1.48; L 2.33; M 2.08; N 1.48; Q 1.78; R 1.54; S 1.53; V 2.42; W 1.75; Y 2.05
W35: A -0.575; C 1.77; F 0.889; H 1.59; I 2.15; L 0.943; M 0.84; N -0.839; R -0.576; S 0.309; T 1.49; V 1.44; Y 1.21
R36: A 1.19; C 2.39; D 0.362; E 1.34; F 3.02; G -0.707; H 2.44; I 3.33; K 2.35; L 2.71; M 2.08; N 1.43; Q 1.54; S 1.67; T 2.57; V 3.08; W 2.7; Y 3.28
V37: C 0.419; F 1.88; I 2.67; L 1.76; M 0.361; P -0.51
R38: A 1.89; D 1.11; E 2.35; F 3.61; G 0.594; H 2.28; I 3.6; K 2.06; L 2.95; M 2.81; N 1.71; Q 2.47; S 2.49; T 2.95; V 3.23
